Source: patent US20250197473A1
Like-named read-outs stand apart in the source and are kept apart here.

How the values were obtained:
Assay in all cases: ELISA
CTLA-4 [1] = molecular target: CTLA-4
PD-1 [2] = molecular target: PD-1
CTLA-4 [3] = molecular target: CTLA-4; remark: listed apart in the source
PD-1 [4] = molecular target: PD-1; remark: listed apart in the source

| Substance | CLTA-4 Relative Binding (CTLA-4 [1]) | PD-1 Relative Binding (PD-1 [2]) | CLTA-4 Relative Binding (CTLA-4 [3]) | PD-1 Relative Binding (PD-1 [4]) |
| --- | --- | --- | --- | --- |
| B7.1 domain only plus Fc construct (Fc fusion) | 0.236 | 0 | 3.26 | 0.004 |
| B7.1/PD-L2 composition (a B7.1 domain linked to a PD-L2 domain plus an Fc domain) (Fc fusion) | 0.548 | 0 | – | – |
| PD-L2 domain only plus Fc construct (Fc fusion) | – | – | 0.008 | 1.77 |
| PD-L2/B7.1 Dual Checkpoint (dual checkpoint inhibitor composition comprising, from the N-terminus to the C-terminus, a PD-L2 domain linked to a B7.1 domain plus a Fc domain) (Fc fusion) | 0.266 | 0.088 | 1.65 | 3.37 |
